The source of these data is patent US20050048477A1 (published 2005).

For the assay, the target named is T1, Gal80-Fpr1p fusion (yeast, UniProt P04387 1-435; P20081 1-114).
T1 construct: Encoded on a pRS416 backbone; also called pGP82; not shown: 2 HA tags derived from oligonucleotides GANG33/34 (DNA only)
T1 sequence (looked up): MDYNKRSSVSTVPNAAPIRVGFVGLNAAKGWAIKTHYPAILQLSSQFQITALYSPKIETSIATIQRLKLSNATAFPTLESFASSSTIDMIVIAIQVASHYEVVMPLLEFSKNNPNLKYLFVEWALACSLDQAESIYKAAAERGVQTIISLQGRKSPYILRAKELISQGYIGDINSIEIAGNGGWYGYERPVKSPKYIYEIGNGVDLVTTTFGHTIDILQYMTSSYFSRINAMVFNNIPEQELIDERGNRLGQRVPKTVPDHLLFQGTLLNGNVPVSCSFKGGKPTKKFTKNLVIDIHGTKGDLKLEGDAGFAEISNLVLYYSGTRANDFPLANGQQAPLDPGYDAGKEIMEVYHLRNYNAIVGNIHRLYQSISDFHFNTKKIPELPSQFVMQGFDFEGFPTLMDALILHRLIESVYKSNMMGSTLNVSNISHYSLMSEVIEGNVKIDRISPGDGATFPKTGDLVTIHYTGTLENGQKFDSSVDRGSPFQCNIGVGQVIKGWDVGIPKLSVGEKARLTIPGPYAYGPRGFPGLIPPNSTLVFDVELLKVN
Nature of the assay: 80-Trap assay in yeast, HIS3 reporter growth without galactose. The procedure:
FIG. 4A illustrates FK506-dependent HIS3 reporter expression. Gal80-Fpr1 designates the Gal80-Fpr1p fusion. Myr-Cna1 designates the plasma membrane targeted Cna1p. Myr-Cmd1 is a plasma membrane targeted calmodulin and is used as a control. The nutrient agar plates used here lacked histidine, tryptophan and uracil and contained 0.5% galactose/3% glycerol/2% lactic acid as carbon source. FK506 was used at 0.25 μg/mL where indicated. Identical results were obtained using nutrient agar lacking galactose (data not shown). […] The nutrient agar plate lacked histidine, tryptophan and uracil and contained 3% glycerol/2% lactic acid as carbon source. Galactose was used at 0.5% where indicated. The lack of tryptophan and uracil are required for selection and maintenance in yeast of the two plasmids Gal80-Fpr1p and Myr-Cna1p, and the lack of histidine is to provide a selective assay for the protein-protein interaction that activates the HIS3 reporter gene carried on a yeast chromosome.
FK506 was used to trigger the interaction between a Gal80-Fpr1p fusion and plasma membrane-localized Myr-Can1p. […] Induction of the galactose-inducible HIS3 reporter gene was assayed. […] It has been reported that Fpr1p also interacts with Hom3p, the aspartokinase, in the absence of FK506 in a yeast two-hybrid assay (Alarcon and Heitman, 1997, Mol. Cell Bio., 17: 5968-5975).

B1: Myr-Hom3p (other, yeast)
chain: MGCTVSTQTIGDESDPMPMDFQPTSSHSNWVVQKFGGTSVGKFPVQIVDDIVKHYSKPDGPNNNVAVVCSARSSYTKAEGTTSRLLKCCDLASQESEFQDIIEVIRQDHIDNADRFILNPALQAKLVDDTNKELELVKKYLNASKVLGEVSSRTVDLVMSCGEKLSCLFMTALCNDRGCKAKYVDLSHIVPSDFSASALDNSFYTFLVQALKEKLAPFVSAKERIVPVFTGFFGLVPTGLLNGVGRGYTDLCAALIAVAVNADELQVWKEVDGIFTADPRKVPEARLLDSVTPEEASELTYYGSEVIHPFTMEQVIRAKIPIRIKNVQNPLGNGTIIYPDNVAKKGESTPPHPPENLSSSFYEKRKRGATAITTKNDIFVINIHSNKKTLSHGFLAQIFTILDKYKLVVDLISTSEVHVSMALPIPDADSLKSLRQAEEKLRILGSVDITKKLSIVSLVGKHMKQYIGIAGTMFTTLAEEGINIEMISQGANEINISCVINESDSIKALQCIHAKLLSERTNTSNQFEHAIDERLEQLKRLGI
modifications: N-myristoylation at the N-terminal signal
notes: Encoded on a pRS424 backbone under the ADH2 promoter; also called pGP130; not shown: CFP amplified from pDH3
Turning to B1, the binding result is given as “binds”.
